B1: CE115HA000 Y100G one-arm antibody (antibody, human IgG1, kappa, L234A L235A, N297A, name in Kabat numbering)
heavy: QVQLVESGGGVVQPGRSLRLSCAASGFTFSNAWMHWVRQAPGKGLEWVAQIKAKSNNYATYYAESVKGRFTISRDDSKNSLYLQMNSLKTEDTAVYYCRYVHYGAGYGVDAWGQGTTVTVSSASTKGPSVFPLAPSSKSTSGGTAALGCLVKDYFPEPVTVSWNSGALTSGVHTFPAVLQSSGLYSLSSVVTVPSSSLGTQTYICNVNHKPSNTKVDKKVEPKSCDKTHTCPPCPAPEAAGGPSVFLFPPKPKDTLMISRTPEVTCVVVDVSHEDPEVKFNWYVDGVEVHNAKTKPREEQYASTYRVVSVLTVLHQDWLNGKEYKCKVSNKALPAPIEKTISKAKGQPREPQVYTLPPSRCELTKNQVSLSCAVKGFYPSDIAVEWESNGQPENNYKTTPPVLDSDGSFFLVSKLTVDKSRWQQGNVFSCSVMHEALHNHYTQKSLSLSPDYKDDDDK
chain: EPKSSDKTHTCPPCPAPELLGGPSVFLFPPKPKDTLMISRTPEVTCVVVDVSHEDPEVKFNWYVDGVEVHNAKTKPREEQYNSTYRVVSVLTVLHQDWLNGKEYKCKVSNKALPAPIEKTISKAKGQPREPQVCTLPPSRDELTKNQVSLWCLVKGFYPSDIAVEWESNGQPENNYKTTPPVLDSDGSFFLYSKLTVDKSRWQQGNVFSCSVMHEALHNRYTQKSLSLSP
light: DIVMTQSPLSLPVTPGEPASISCRSSQSLVHSNRNTYLHWYQQKPGQAPRLLIYKVSNRFSGVPDRFSGSGSGTDFTLKISRVEAEDVGVYYCGQGTQVPYTFGQGTKLEIKRTVAAPSVFIFPPSDEQLKSGTASVVCLLNNFYPREAKVQWKVDNALQSGNSQESVTEQDSKDSTYSLSSTLTLSKADYEKHKVYACEVTHQGLSSPVTKSFNRGEC
B2: CE115HA000 Y100K one-arm antibody (antibody, human IgG1, kappa, L234A L235A, N297A, name in Kabat numbering)
heavy: QVQLVESGGGVVQPGRSLRLSCAASGFTFSNAWMHWVRQAPGKGLEWVAQIKAKSNNYATYYAESVKGRFTISRDDSKNSLYLQMNSLKTEDTAVYYCRYVHYGAKYGVDAWGQGTTVTVSSASTKGPSVFPLAPSSKSTSGGTAALGCLVKDYFPEPVTVSWNSGALTSGVHTFPAVLQSSGLYSLSSVVTVPSSSLGTQTYICNVNHKPSNTKVDKKVEPKSCDKTHTCPPCPAPEAAGGPSVFLFPPKPKDTLMISRTPEVTCVVVDVSHEDPEVKFNWYVDGVEVHNAKTKPREEQYASTYRVVSVLTVLHQDWLNGKEYKCKVSNKALPAPIEKTISKAKGQPREPQVYTLPPSRCELTKNQVSLSCAVKGFYPSDIAVEWESNGQPENNYKTTPPVLDSDGSFFLVSKLTVDKSRWQQGNVFSCSVMHEALHNHYTQKSLSLSPDYKDDDDK
chain: EPKSSDKTHTCPPCPAPELLGGPSVFLFPPKPKDTLMISRTPEVTCVVVDVSHEDPEVKFNWYVDGVEVHNAKTKPREEQYNSTYRVVSVLTVLHQDWLNGKEYKCKVSNKALPAPIEKTISKAKGQPREPQVCTLPPSRDELTKNQVSLWCLVKGFYPSDIAVEWESNGQPENNYKTTPPVLDSDGSFFLYSKLTVDKSRWQQGNVFSCSVMHEALHNRYTQKSLSLSP
light: DIVMTQSPLSLPVTPGEPASISCRSSQSLVHSNRNTYLHWYQQKPGQAPRLLIYKVSNRFSGVPDRFSGSGSGTDFTLKISRVEAEDVGVYYCGQGTQVPYTFGQGTKLEIKRTVAAPSVFIFPPSDEQLKSGTASVVCLLNNFYPREAKVQWKVDNALQSGNSQESVTEQDSKDSTYSLSSTLTLSKADYEKHKVYACEVTHQGLSSPVTKSFNRGEC
B3: CE115HA000 Y100L one-arm antibody (antibody, human IgG1, kappa, L234A L235A, N297A, name in Kabat numbering)
heavy: QVQLVESGGGVVQPGRSLRLSCAASGFTFSNAWMHWVRQAPGKGLEWVAQIKAKSNNYATYYAESVKGRFTISRDDSKNSLYLQMNSLKTEDTAVYYCRYVHYGALYGVDAWGQGTTVTVSSASTKGPSVFPLAPSSKSTSGGTAALGCLVKDYFPEPVTVSWNSGALTSGVHTFPAVLQSSGLYSLSSVVTVPSSSLGTQTYICNVNHKPSNTKVDKKVEPKSCDKTHTCPPCPAPEAAGGPSVFLFPPKPKDTLMISRTPEVTCVVVDVSHEDPEVKFNWYVDGVEVHNAKTKPREEQYASTYRVVSVLTVLHQDWLNGKEYKCKVSNKALPAPIEKTISKAKGQPREPQVYTLPPSRCELTKNQVSLSCAVKGFYPSDIAVEWESNGQPENNYKTTPPVLDSDGSFFLVSKLTVDKSRWQQGNVFSCSVMHEALHNHYTQKSLSLSPDYKDDDDK
chain: EPKSSDKTHTCPPCPAPELLGGPSVFLFPPKPKDTLMISRTPEVTCVVVDVSHEDPEVKFNWYVDGVEVHNAKTKPREEQYNSTYRVVSVLTVLHQDWLNGKEYKCKVSNKALPAPIEKTISKAKGQPREPQVCTLPPSRDELTKNQVSLWCLVKGFYPSDIAVEWESNGQPENNYKTTPPVLDSDGSFFLYSKLTVDKSRWQQGNVFSCSVMHEALHNRYTQKSLSLSP
light: DIVMTQSPLSLPVTPGEPASISCRSSQSLVHSNRNTYLHWYQQKPGQAPRLLIYKVSNRFSGVPDRFSGSGSGTDFTLKISRVEAEDVGVYYCGQGTQVPYTFGQGTKLEIKRTVAAPSVFIFPPSDEQLKSGTASVVCLLNNFYPREAKVQWKVDNALQSGNSQESVTEQDSKDSTYSLSSTLTLSKADYEKHKVYACEVTHQGLSSPVTKSFNRGEC
B4: CE115HA000 Y100P one-arm antibody (antibody, human IgG1, kappa, L234A L235A, N297A, name in Kabat numbering)
heavy: QVQLVESGGGVVQPGRSLRLSCAASGFTFSNAWMHWVRQAPGKGLEWVAQIKAKSNNYATYYAESVKGRFTISRDDSKNSLYLQMNSLKTEDTAVYYCRYVHYGAPYGVDAWGQGTTVTVSSASTKGPSVFPLAPSSKSTSGGTAALGCLVKDYFPEPVTVSWNSGALTSGVHTFPAVLQSSGLYSLSSVVTVPSSSLGTQTYICNVNHKPSNTKVDKKVEPKSCDKTHTCPPCPAPEAAGGPSVFLFPPKPKDTLMISRTPEVTCVVVDVSHEDPEVKFNWYVDGVEVHNAKTKPREEQYASTYRVVSVLTVLHQDWLNGKEYKCKVSNKALPAPIEKTISKAKGQPREPQVYTLPPSRCELTKNQVSLSCAVKGFYPSDIAVEWESNGQPENNYKTTPPVLDSDGSFFLVSKLTVDKSRWQQGNVFSCSVMHEALHNHYTQKSLSLSPDYKDDDDK
chain: EPKSSDKTHTCPPCPAPELLGGPSVFLFPPKPKDTLMISRTPEVTCVVVDVSHEDPEVKFNWYVDGVEVHNAKTKPREEQYNSTYRVVSVLTVLHQDWLNGKEYKCKVSNKALPAPIEKTISKAKGQPREPQVCTLPPSRDELTKNQVSLWCLVKGFYPSDIAVEWESNGQPENNYKTTPPVLDSDGSFFLYSKLTVDKSRWQQGNVFSCSVMHEALHNRYTQKSLSLSP
light: DIVMTQSPLSLPVTPGEPASISCRSSQSLVHSNRNTYLHWYQQKPGQAPRLLIYKVSNRFSGVPDRFSGSGSGTDFTLKISRVEAEDVGVYYCGQGTQVPYTFGQGTKLEIKRTVAAPSVFIFPPSDEQLKSGTASVVCLLNNFYPREAKVQWKVDNALQSGNSQESVTEQDSKDSTYSLSSTLTLSKADYEKHKVYACEVTHQGLSSPVTKSFNRGEC

biological target: T1, CD3 epsilon homodimer protein (UniProt P07766 23-126); experiment: SPR (Biacore T200), CD3 epsilon homodimer on CM4 chip, one-arm antibody as analyte, 25 C;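 also: homodimer attached to the sensor surface via amine coupling, HBS-EP+ used as running buffer during binding runs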
T1 construct: immobilized on Sensor chip CM4 by amine coupling; also called CD3 (CD3 epsilon)
T1 sequence (P07766 23-126): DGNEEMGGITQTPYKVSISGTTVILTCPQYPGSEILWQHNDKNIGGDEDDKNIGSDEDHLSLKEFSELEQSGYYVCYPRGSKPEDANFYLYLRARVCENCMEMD

B1 and B2 are the same in “ratio of amounts bound (altered form / CE115HA000)” value: 1.07 for the first, 1.07 for the second.

Compared with B3, B4 is lower in “ratio of amounts bound (altered form / CE115HA000)” value: 0.7 for the first, 0.48 for the second.
